Changes are numbered by the printed parent chain. Ends that are not written are not given here.
T1: CRF2R
T1 sequence (Q13324 whole entry, species assumed, looked up): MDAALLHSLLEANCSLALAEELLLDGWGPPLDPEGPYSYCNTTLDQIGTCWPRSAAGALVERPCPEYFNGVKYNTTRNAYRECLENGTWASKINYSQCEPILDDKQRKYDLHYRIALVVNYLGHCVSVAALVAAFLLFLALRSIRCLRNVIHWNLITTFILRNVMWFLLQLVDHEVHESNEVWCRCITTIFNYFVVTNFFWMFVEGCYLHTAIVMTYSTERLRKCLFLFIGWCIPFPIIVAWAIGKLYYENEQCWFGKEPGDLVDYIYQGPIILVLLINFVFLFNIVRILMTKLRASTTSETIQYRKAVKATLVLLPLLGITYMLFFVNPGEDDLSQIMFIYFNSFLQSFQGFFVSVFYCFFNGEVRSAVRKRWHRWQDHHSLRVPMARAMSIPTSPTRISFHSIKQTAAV

B1: SEQ ID NO 363 (peptide)
peptide: ZGPPISIDLPFQLLRKAIEIEKQEKEKQQATTNARLLDRV
modifications: C-terminal amide
B2: SEQ ID NO 364 (peptide)
peptide: ZGPPISIDLPFQLLRKAIEIEKQEKEKQQAANNALLLATI
modifications: C-terminal amide
B3: SEQ ID NO 365 (peptide)
peptide: B2 peptide with A38D
modifications: C-terminal amide
B4: SEQ ID NO 366 (peptide)
peptide: IVLSLDVPIGLLQILLEKAAAEAEAAAKAAQEQILAHV-NH2
B5: SEQ ID NO 367 (peptide)
peptide: IVLSLDVPIGLLQILLEQARHAAAHAAAHAQAHILAHV-NH2
B6: SEQ ID NO 368 (peptide)
peptide: IVLSLDVPIGLLQILLEQARARAAREQATTNARILARVM-NH2
B7: SEQ ID NO 369 (peptide)
peptide: IVLSLDVPIGLLQILLEQARHAHAHAHAHAQAHILAHV-NH2
B8: SEQ ID NO 370 (peptide)
peptide: IVLSLDVSIGLLQILLEQARARAAREQATTNARILARV-NH2
B9: SEQ ID NO 371 (peptide)
peptide: IVLSLDVPIHLLQILLEQARARAAREQATTNARILARV-NH2
B10: SEQ ID NO 372 (peptide)
peptide: ZGPPISIDVPYWLLRKVIEIEKQEKEKQQAANNARLLDTI
modifications: C-terminal amide
B11: SEQ ID NO 373 (peptide)
peptide: B10 peptide with D38A, T39R
modifications: C-terminal amide
B12: SEQ ID NO 374 (peptide)
peptide: B10 peptide with W12Q
modifications: C-terminal amide
B13: SEQ ID NO 375 (peptide)
peptide: B10 peptide with W12Q, D38A, T39R
modifications: C-terminal amide
B14: SEQ ID NO 376 (peptide)
peptide: B10 peptide with W12H
modifications: C-terminal amide
B15: SEQ ID NO 377 (peptide)
peptide: B10 peptide with W12H, D38A, T39R
modifications: C-terminal amide
B16: SEQ ID NO 378 (peptide)
peptide: B10 peptide with W12Y, D38A, T39R
modifications: C-terminal amide
B17: SEQ ID NO 379 (peptide)
peptide: B10 peptide with Y11I, W12Y, D38A, T39R
modifications: C-terminal amide
B18: SEQ ID NO 380 (peptide)
peptide: B10 peptide with Y11L, W12Q
modifications: C-terminal amide
B19: SEQ ID NO 381 (peptide)
peptide: B10 peptide with Y11L, W12Q, D38A, T39R
modifications: C-terminal amide
B20: SEQ ID NO 382 (peptide)
peptide: B10 peptide with Y11F, W12Q
modifications: C-terminal amide
B21: SEQ ID NO 383 (peptide)
peptide: B2 peptide with L9V, A17V, L35R, T39R
modifications: C-terminal amide
B22: SEQ ID NO 384 (peptide)
peptide: DNPSLSIDVPLLLLRTLLELEKTQSQRERAEQNARIFARV-NH2
B23: SEQ ID NO 385 (peptide)
peptide: DNPSLSIDVPLFLLRTLLELEKTQSQRERAEQNARIFARV-NH2
B24: SEQ ID NO 386 (peptide)
peptide: DNPSLSIDVPFFLLRTLLELEKTQSQRERAEQNARIFARV-NH2
B25: SEQ ID NO 387 (peptide)
peptide: DNPSLSIDVPLYLLRTLLELEKTQSQRERAEQNARIFARV-NH2
B26: SEQ ID NO 212 (peptide)
peptide: B2 peptide with F11H, A17M, A34R, A38D
modifications: C-terminal amide
B27: SEQ ID NO 213 (peptide)
peptide: B2 peptide with F11Q, Q12W, A17M, A34R, A38D
modifications: C-terminal amide
B28: SEQ ID NO 214 (peptide)
peptide: IVLSLDVVIGLLQILLEQARARAAREQATTNARILARV-NH2
B29: SEQ ID NO 215 (peptide)
peptide: B10 peptide with V9L, V17M, A34R, R35L
modifications: C-terminal amide
B30: SEQ ID NO 216 (peptide)
peptide: B2 peptide with F11W, Q12W, A17M, A34R, A38D
modifications: C-terminal amide
B31: SEQ ID NO 217 (peptide)
peptide: B2 peptide with Q12W, A17M, A34R, A38D
modifications: C-terminal amide
B32: SEQ ID NO 218 (peptide)
peptide: B2 peptide with F11L, Q12W, A17M, A34R, A38D
modifications: C-terminal amide
B33: SEQ ID NO 219 (peptide)
peptide: B2 peptide with F11H, Q12F, A17M, A34R, A38D
modifications: C-terminal amide
B34: SEQ ID NO 220 (peptide)
peptide: B2 peptide with F11Y, Q12F, A17M, A34R, A38D
modifications: C-terminal amide
B35: SEQ ID NO 221 (peptide)
peptide: B2 peptide with F11Q, Q12F, A17M, A34R, A38D
modifications: C-terminal amide
B36: SEQ ID NO 222 (peptide)
peptide: B2 peptide with F11A, Q12F, A17M, A34R, A38D
modifications: C-terminal amide
B37: SEQ ID NO 223 (peptide)
peptide: B2 peptide with Q12F, A17M, A34R, A38D
modifications: C-terminal amide
B38: SEQ ID NO 224 (peptide)
peptide: B2 peptide with F11Q, Q12Y, A17M, A38D
modifications: C-terminal amide

Columns and labels:
[1] = biological target: T1, CRF2R; assay: cell-based or functional assay
[2] = biological target: CRF1R; assay: cell-based or functional assay
For CRF1R Emax % in this document: reference of the scale not given here.
For CRF2R Emax % in this document: reference of the scale not given here.

Binder | CRF2R EC50 [1] | CRF2R Emax % [1] | CRF1R EC50 [2] | CRF1R Emax % [2]
B1 | 25.1 nM | 100% | 1000 nM | 20%
B2 | 13.2 nM | 100% | 1000 nM | 27%
B3 | 23.4 nM | 94% | 1000 nM | 21%
B4 | 100 nM | 46% | 1000 nM | 9%
B5 | 100 nM | 18% | 1000 nM | 6%
B6 | 50.4 nM | – | 1000 nM | –
B7 | 100 nM | 18% | 1000 nM | 4%
B8 | 51 nM | 75% | 1000 nM | 33%
B9 | 6.62 nM | 97% | 1000 nM | 22%
B10 | 14.2 nM | 100% | 1000 nM | 13%
B11 | 11.5 nM | 100% | 1000 nM | 9%
B12 | 15.8 nM | 91% | 1000 nM | 11%
B13 | 11.5 nM | 100% | 1000 nM | 22%
B14 | 52.5 nM | 100% | 1000 nM | 8%
B15 | 19.2 nM | 83% | 1000 nM | 25%
B16 | 14.9 nM | 100% | 1000 nM | 36%
B17 | 70.5 nM | 94% | 1000 nM | 8%
B18 | 19 nM | 100% | 1000 nM | 16%
B19 | 12.7 nM | 99% | 1000 nM | 27%

Binder | CRF2R EC50 [1] | CRF2R Emax % [1] | CRF1R EC50 [2] | CRF1R Emax % [2]
B20 | 39.5 nM | 100% | 1000 nM | 8%
B21 | 9.31 nM | 96% | 1000 nM | 55%
B22 | 7.1 nM | 97.3% | 1000 nM | 70.3%
B23 | 10.2 nM | 100% | 1000 nM | 46%
B24 | 8.7 nM | 96% | 1000 nM | 78.2%
B25 | 17.9 nM | 100% | 1000 nM | 50.1%
B26 | 21.3 nM | 100% | 445 nM | 100%
B27 | 22.3 nM | 99% | 1000 nM | 76%
B28 | 74.3 nM | 60% | 100 nM | 4%
B29 | 4 nM | 100% | 188 nM | 100%
B30 | 9.9 nM | 90% | 49.8 nM | 98%
B31 | 4.7 nM | 95% | 94.7 nM | 100%
B32 | 4.8 nM | 96% | 98.4 nM | 100%
B33 | 7.8 nM | 98% | 80.9 nM | 100%
B34 | 4.1 nM | 98% | 63.6 nM | 81%
B35 | 8.5 nM | 100% | 236 nM | 100%
B36 | 9.4 nM | 100% | 384 nM | 95%
B37 | 3 nM | 92% | 48.1 nM | 81%
B38 | 26.9 nM | 100% | 1000 nM | 27%
